Data on nine molecules can be found in patent publication US7785825B2, “Compositions and methods for dehydration and cyclization of peptides, synthetic compounds, and lantibiotics” (priority 2004, dated 2010).

Series [1] deals with His6-LctA (Lactococcus lactis CNRZ 481).
The target in series [2] is His6-LctA-T48S (Lactococcus lactis CNRZ 481).
Series [3] deals with LctMutA (Artificial Sequence).
Series [4] addresses LctRumA (Artificial Sequence).
For series [5], the target named is MutA (His-tagged mutacin II prepeptide) (Artificial).
Series [6] addresses LctMutAK (Artificial Sequence).
For the next series, the target named is LctM (Lactococcus lactis subsp. lactis, UniProt P37609). The series can be described thus: LctM activity assay: dehydration and cyclization of peptide substrates, read out by MS. Type of series: biochemical, Lactococcus lactis CNRZ 481. To be noted: for effect on LctM processing of His6-LctA: ATP analog in place of ATP, EDTA added; for number of dehydrations after incubation with LctM: MALDI-MS / ESI-FTMS of product. An excerpt:
For MALDI MS analysis, 1 microL of the assay sample was mixed with 9 microL of sinapinic acid pre-dissolved in MeCN:H2O (2:1) in 0.1% TFA and 1 microL of the mixture was applied on the MALDI target. MALDI MS calcd. […] ESI-FT-MS for the major product: mass calcd.

The subject of series [7] is methicillin-resistant Staphylococcus aureus (MRSA). As to conditions: cited from earlier work.
In series [8] the target is T1, protease domain of LctT (GST-Lpd) (Lactococcus lactis subsp. lactis, UniProt P37608).
T1 sequence (P37608 whole entry, looked up): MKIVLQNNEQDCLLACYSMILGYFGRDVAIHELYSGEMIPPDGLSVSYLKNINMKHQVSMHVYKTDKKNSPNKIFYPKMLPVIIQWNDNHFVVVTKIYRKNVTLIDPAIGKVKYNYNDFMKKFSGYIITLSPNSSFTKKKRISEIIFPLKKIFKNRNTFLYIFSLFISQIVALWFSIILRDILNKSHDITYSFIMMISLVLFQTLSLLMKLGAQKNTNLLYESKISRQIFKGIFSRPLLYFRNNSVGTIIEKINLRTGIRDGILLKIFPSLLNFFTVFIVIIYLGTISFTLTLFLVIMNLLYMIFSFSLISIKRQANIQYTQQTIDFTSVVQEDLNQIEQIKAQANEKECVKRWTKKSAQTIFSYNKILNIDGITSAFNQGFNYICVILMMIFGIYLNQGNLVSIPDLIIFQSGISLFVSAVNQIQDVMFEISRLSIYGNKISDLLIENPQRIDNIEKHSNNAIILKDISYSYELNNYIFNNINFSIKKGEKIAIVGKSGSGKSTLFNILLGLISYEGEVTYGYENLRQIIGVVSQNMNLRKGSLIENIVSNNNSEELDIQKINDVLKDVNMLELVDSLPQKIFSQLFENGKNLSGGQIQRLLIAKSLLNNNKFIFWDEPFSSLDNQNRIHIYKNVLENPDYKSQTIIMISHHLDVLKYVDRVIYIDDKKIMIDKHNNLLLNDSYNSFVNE
The series can be described thus: Leader cleavage by the LctT protease domain (GST-Lpd). Type of series: biochemical, Lactococcus lactis CNRZ 481. As to conditions: MALDI-TOF MS. The method, then:
Cleavage of His-LctA and His-pro-Lacticin. The unmodified His-LctA substrate was either directly incubated with GST-Lpd or first modified by LctM prior to incubation with the protease. Assay mixtures typically contained substrate (50-500 μg), GST-Lpd (35-70 μg) and a buffer consisting of 200 mM NaPi, pH 7.5, 200 mM Na2SO4 and 5 mM DTT. Assays were incubated at 37° C. for 12 h and analyzed by MALDI-TOF MS. Both unmodified and modified His-LctA were substrates for GST-Lpd as determined by MALDI-TOF MS and sensitivity of indicator strain Lactococcus lactis 117 towards the modified substrate after cleavage. See FIG. 83 which illustrates LctT as a bifunctional protein including the proteolytic domain.

The test system of a further series is L. lactis CNRZ 117. The series can be described thus: Bioassay for lantibiotic activity (solid agar diffusion). Type of series: cell-based, Lactococcus lactis. To be noted: agar diffusion assay, lacticin 481-sensitive indicator strain L. lactis CNRZ 117. The method, then:
The lyophilized assay product (˜0.1 microg) was redissolved in 6 microL of Millipore water. To the solution, 4 microL of a solution of Lys-C in 100 mM Tris, pH 8.5 (0.4 ng/microL) was added and the mixture was incubated at 37° C. for 3 h. The resulting mixture was checked by MALDI-TOF MS. Three fragments were expected and two were observed: calcd, 2310 ([1-21]), 2591 ([22-44]), 2773 ([45-70]); found, 2593 ([22-44]), 2775 ([45-70]).
Inhibitory activity was assayed by the solid agar medium test. A GM17 agar plate was seeded with the test strain by mixing 100 mL of liquid GM17 agar at 50° C. with 1.5 mL of an overnight culture. After agar solidification, wells were created in the medium and the samples were added to the wells. The activity of the starting peptide, LctM-product, and the product and starting peptide treated with Lys-C were determined using a solid agar diffusion bioassay with indicator strain L. lactis CNRZ 117 (See FIG. 5).
FIG. 5 illustrates a bioassay for lantibiotic activity. Small aliquots of the following samples were added in the wells: (1) His6-LctA (SEQ ID NO:4), (2) His6-LctA treated with Lys-C, (3) His6-LctA modified by LctM, (4) His6-LctA modified by LctM and treated with Lys-C, (5) cell free broth of L. lactis CNRZ 117, (6) cell free broth of L. lactis CNRZ 481 containing lacticin 481, (7) 50 mM Tris buffer, pH 8.5, (8) Lys-C in 50 mM Tris buffer, pH 8.5.
In general terms: Agar diffusion results depend on both activity and mobility in agar.

LctM, sequence (P37609 whole entry): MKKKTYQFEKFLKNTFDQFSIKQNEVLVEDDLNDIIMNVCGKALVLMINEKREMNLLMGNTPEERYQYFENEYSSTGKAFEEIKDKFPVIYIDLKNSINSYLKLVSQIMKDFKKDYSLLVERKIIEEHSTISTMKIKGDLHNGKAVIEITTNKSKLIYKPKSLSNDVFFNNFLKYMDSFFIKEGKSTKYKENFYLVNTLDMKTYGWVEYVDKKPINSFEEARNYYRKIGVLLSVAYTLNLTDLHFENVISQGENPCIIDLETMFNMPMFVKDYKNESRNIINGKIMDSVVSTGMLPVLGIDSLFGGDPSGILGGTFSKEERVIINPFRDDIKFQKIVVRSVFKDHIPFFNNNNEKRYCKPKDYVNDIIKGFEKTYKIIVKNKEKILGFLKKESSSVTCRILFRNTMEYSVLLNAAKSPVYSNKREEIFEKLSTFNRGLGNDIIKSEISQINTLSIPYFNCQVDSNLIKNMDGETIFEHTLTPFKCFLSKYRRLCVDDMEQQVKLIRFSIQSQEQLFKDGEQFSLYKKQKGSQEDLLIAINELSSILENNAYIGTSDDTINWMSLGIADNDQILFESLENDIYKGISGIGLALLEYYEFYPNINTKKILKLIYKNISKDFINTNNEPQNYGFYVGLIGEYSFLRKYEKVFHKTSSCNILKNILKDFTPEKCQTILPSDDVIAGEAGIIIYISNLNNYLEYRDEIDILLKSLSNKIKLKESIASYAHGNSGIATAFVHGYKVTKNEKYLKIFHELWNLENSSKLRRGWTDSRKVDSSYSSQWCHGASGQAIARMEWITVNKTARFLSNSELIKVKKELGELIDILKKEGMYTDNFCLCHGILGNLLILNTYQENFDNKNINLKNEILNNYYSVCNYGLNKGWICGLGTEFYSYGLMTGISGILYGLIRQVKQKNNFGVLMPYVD

With “His6-LctM (lacticin 481 synthetase LctM with N-terminal His6-tag) (enzyme)”, the dehydration and cyclization of the substrate (ESI-FTMS, MS/MS) in series [1] was greater than 80%. Also, the dehydration of the substrate (MS) in series [2] worked out at 4 dehydrations. In addition, the dehydration of the substrate in [3], in series [4], in series [5] and in series [6] was 4 dehydrations each time.

With `Nc1ncnc2c1ncn2[C@@H]1O[C@H](COP(=O)(O)OP(=O)(O)NP(=O)(O)O)[C@@H](O)[C@H]1O` [AMP-PNP], the “effect on LctM processing of His6-LctA” value on LctM is recorded as “completely abolished”.

With `Nc1ncnc2c1ncn2[C@@H]1O[C@H](COP(=O)(O)OP(=O)(O)CP(=O)(O)O)[C@@H](O)[C@H]1O` [AMP-PCP], at LctM, the “effect on LctM processing of His6-LctA” value is recorded as “completely abolished”.

Take `O=C(O)CN(CCN(CC(=O)O)CC(=O)O)CC(=O)O` [EDTA]: on LctM, the “effect on LctM processing of His6-LctA” value is “abolished the reaction”.

In the case of `Nc1ncnc2c1ncn2[C@@H]1O[C@H](CO[P@](=O)(O)O[P@](=O)(O)O[P@@](=O)(O)S)[C@@H](O)[C@H]1O` [ATP-gamma-S], the “effect on LctM processing of His6-LctA” value on LctM is on record as “less efficient”.

On to mersacidin, for which the “cytotoxic activity against MRSA” value in [7] is given as “comparable cytotoxic activity”.

B1: LctMutA: His-tag, LctA leader and mutacin II structural region (peptide)
chain: GSSHHHHHHSSGLVPRGSHMLEMKEQNSFNLLQEVTESELDLILGANRWWQGVVPTVSYECRMNSWQHVFTCC
Turning to B1, the “number of dehydrations after incubation with LctM” value in the series with LctM came out at 4. Moreover, the “cleavage of the leader by the LctT protease domain” value (from here on “cleavage of the leader”) in series [8] was “can remove the leader peptide and the His-tag”.

B2: His6-LctA (peptide)
peptide: GSSHHHHHHSSGLVPRGSHMKEQNSFNLLQEVTESELDLILGAKGGSGVIHTISHECNMNSWQFVFTCCS
For B2, the “antimicrobial activity (zone of inhibition)” value in the series with L. lactis CNRZ 117 is “No antimicrobial activity was detected”. For the same molecule, in the series with LctM, the “number of dehydrations after incubation with LctM” value is given as “four”. In the series with LctM (treatment with LctM for 1 hour), the “substrate converted to M-72 product” value is recorded as “more than 80%”. For the same molecule, the “cleavage of the leader” value in series [8] is reported as “substrates”.

B3: His6-LctA modified by LctM: fully processed product, lacticin 481 fused to its leader peptide (peptide)
peptide: B2 peptide
modifications: not fully specified (residues 52, 54, 61, 67, bridges)
For B3, the “antimicrobial activity (zone of inhibition)” value in the series on L. lactis CNRZ 117 is on record as “No antimicrobial activity was detected”. The “cleavage of the leader” value in [8] was “substrates”.
